Reference: patent US5858678

Experiments:
[1] = molecular target: human Bcl-2 bait (pMA424-based GAL4 DNA-binding domain fusion, residues 1-239 of Bcl2), wild type (yeast; human); assay: yeast two-hybrid, ONPG beta-galactosidase assay
[2] = molecular target: 19K mutant 14-5 bait (GAL4(1-147)-19 kD fusion) (yeast; adenovirus) (UniProt P04386); assay: yeast two-hybrid, ONPG beta-galactosidase assay
[3] = molecular target: 19K mutant 146-E bait (GAL4(1-147)-19 kD fusion) (yeast; adenovirus) (UniProt P04386); assay: yeast two-hybrid, ONPG beta-galactosidase assay
[4] = molecular target: Bcl-2 deletion mutant #42-8 (lacks residues 42 to 48) bait in pMA424 (yeast; human); assay: yeast two-hybrid, ONPG beta-galactosidase assay
[5] = molecular target: Bcl-2 deletion mutant #106-5 (lacks residues 106 to 115) bait in pMA424 (yeast; human); assay: yeast two-hybrid, ONPG beta-galactosidase assay
[6] = molecular target: Bcl-2 deletion mutant #80-6 (lacks residues 80 to 86) bait in pMA424 (yeast; human); assay: yeast two-hybrid, ONPG beta-galactosidase assay
[7] = molecular target: 19K mutant 90-6 (amino acids 90-96) bait (GAL4(1-147)-19 kD fusion) (yeast; adenovirus) (UniProt P04386); assay: yeast two-hybrid, ONPG beta-galactosidase assay
[8] = molecular target: 19K mutant 75-6 (substitution for residues 75-76) bait (GAL4(1-147)-19 kD fusion) (yeast; adenovirus) (UniProt P04386); assay: yeast two-hybrid, ONPG beta-galactosidase assay
[9] = molecular target: 19K mutant 50-1 (amino acids 50-51) bait (GAL4(1-147)-19 kD fusion) (yeast; adenovirus) (UniProt P04386); assay: yeast two-hybrid, ONPG beta-galactosidase assay
[10] = molecular target: GAL4(1-147)-19K fusion protein (adenovirus E1B 19 kD protein bait, wild type) (yeast; adenovirus) (UniProt P04386); assay: yeast two-hybrid, ONPG beta-galactosidase assay
[11] = molecular target: 19K mutant 29-0 bait (GAL4(1-147)-19 kD fusion) (yeast; adenovirus) (UniProt P04386); assay: yeast two-hybrid, ONPG beta-galactosidase assay
[12] = molecular target: 19K mutant 123-4 (substitutions for residues 123-124) bait (GAL4(1-147)-19 kD fusion) (yeast; adenovirus) (UniProt P04386); assay: yeast two-hybrid, ONPG beta-galactosidase assay
[13] = molecular target: human Bcl-2 bait (pMA424-based GAL4 DNA-binding domain fusion, residues 1-239 of Bcl2), wild type (yeast; human); assay: yeast two-hybrid, ONPG beta-galactosidase assay, relative to the 19K bait
[14] = molecular target: GAL4(1-147)-19K fusion protein (adenovirus E1B 19 kD protein bait, wild type) (yeast; adenovirus) (UniProt P04386); assay: as above

Nip1 (19K-interacting protein 1), protein coded by cDNA clone 22, tagged with the GAL4 activation domain, sequence (chain): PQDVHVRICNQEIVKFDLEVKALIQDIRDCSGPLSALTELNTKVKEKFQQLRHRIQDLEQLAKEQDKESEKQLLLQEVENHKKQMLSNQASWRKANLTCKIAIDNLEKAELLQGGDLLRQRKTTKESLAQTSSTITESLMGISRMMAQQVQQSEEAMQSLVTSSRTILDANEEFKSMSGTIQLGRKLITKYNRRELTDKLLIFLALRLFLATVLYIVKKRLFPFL
Nip3 (19K-interacting protein 3), protein coded by cDNA clone 91, tagged with the GAL4 activation domain, sequence (chain): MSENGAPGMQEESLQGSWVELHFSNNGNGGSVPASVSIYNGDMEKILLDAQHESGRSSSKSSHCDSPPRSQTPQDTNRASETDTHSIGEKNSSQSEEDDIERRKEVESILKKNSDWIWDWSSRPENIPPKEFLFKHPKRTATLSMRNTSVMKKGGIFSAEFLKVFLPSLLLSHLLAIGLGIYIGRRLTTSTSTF
Nip2 (19K-interacting protein 2), protein coded by cDNA clone 44, tagged with the GAL4 activation domain, sequence (chain): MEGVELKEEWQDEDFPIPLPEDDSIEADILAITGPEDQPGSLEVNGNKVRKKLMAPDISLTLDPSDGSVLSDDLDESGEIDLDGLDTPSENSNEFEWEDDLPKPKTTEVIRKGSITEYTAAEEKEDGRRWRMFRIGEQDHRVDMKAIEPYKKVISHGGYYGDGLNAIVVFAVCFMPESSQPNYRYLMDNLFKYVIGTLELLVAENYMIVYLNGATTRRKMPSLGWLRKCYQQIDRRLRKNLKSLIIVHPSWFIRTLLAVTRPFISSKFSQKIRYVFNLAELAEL

Substance: Nip2 (19K-interacting protein 2), protein coded by cDNA clone 44, tagged with the GAL4 activation domain
- relative level of lacZ expression (ONPG) (relative level) [1]: 1
- relative level of lacZ expression (ONPG) (relative level) [2]: 0.55
- relative level of lacZ expression (ONPG) (relative level) [3]: 0.98
- relative level of lacZ expression (ONPG) (relative level) [4]: 0.09
- relative level of lacZ expression (ONPG) (relative level) [5]: 0.06
- relative level of lacZ expression (ONPG) (relative level) [6]: 0.8
- relative level of lacZ expression (ONPG) (relative level) [7]: 0.04
- relative level of lacZ expression (ONPG) (relative level) [8]: 1.6
- relative level of lacZ expression (ONPG) (relative level) [9]: 0.09
- relative level of lacZ expression (ONPG) (relative level) [10]: 1
- relative level of lacZ expression (ONPG) (relative level) [11]: 0.32
- relative level of lacZ expression (ONPG) (relative level) [12]: 0.24
- relative level of lacZ expression (ONPG) (relative level) [13]: 0.7
- relative level of lacZ expression (ONPG) (relative level) [14]: 1

Substance: Nip1 (19K-interacting protein 1), protein coded by cDNA clone 22, tagged with the GAL4 activation domain
- relative level of lacZ expression (ONPG) (relative level) [1]: 1
- relative level of lacZ expression (ONPG) (relative level) [2]: 0.61
- relative level of lacZ expression (ONPG) (relative level) [3]: 0.87
- relative level of lacZ expression (ONPG) (relative level) [4]: 0.16
- relative level of lacZ expression (ONPG) (relative level) [5]: 0.01
- relative level of lacZ expression (ONPG) (relative level) [6]: 1.21
- relative level of lacZ expression (ONPG) (relative level) [7]: < 0.01
- relative level of lacZ expression (ONPG) (relative level) [8]: 1.72
- relative level of lacZ expression (ONPG) (relative level) [9]: < 0.01
- relative level of lacZ expression (ONPG) (relative level) [10]: 1
- relative level of lacZ expression (ONPG) (relative level) [11]: 0.33
- relative level of lacZ expression (ONPG) (relative level) [12]: 0.05
- relative level of lacZ expression (ONPG) (relative level) [13]: 1.8
- relative level of lacZ expression (ONPG) (relative level) [14]: 1

Substance: Nip3 (19K-interacting protein 3), protein coded by cDNA clone 91, tagged with the GAL4 activation domain
- relative level of lacZ expression (ONPG) (relative level) [1]: 1
- relative level of lacZ expression (ONPG) (relative level) [2]: 0.16
- relative level of lacZ expression (ONPG) (relative level) [3]: 0.28
- relative level of lacZ expression (ONPG) (relative level) [4]: 0.19
- relative level of lacZ expression (ONPG) (relative level) [5]: 0.11
- relative level of lacZ expression (ONPG) (relative level) [6]: 2.87
- relative level of lacZ expression (ONPG) (relative level) [7]: 0.01
- relative level of lacZ expression (ONPG) (relative level) [8]: 0.22
- relative level of lacZ expression (ONPG) (relative level) [9]: 0.01
- relative level of lacZ expression (ONPG) (relative level) [10]: 1
- relative level of lacZ expression (ONPG) (relative level) [11]: 0.19
- relative level of lacZ expression (ONPG) (relative level) [12]: 0.1
- relative level of lacZ expression (ONPG) (relative level) [13]: 1.5
- relative level of lacZ expression (ONPG) (relative level) [14]: 1
